The text below walks through data of paper PMC2132943.

This experiment concerns the target CCR5 chemokine receptor (human) (UniProt P51681). Kind of experiment: cross-linking.

Chain of CCR5 chemokine receptor, P51681 1-352 (receptor; other documents disagree on this pair) (P51681 whole entry): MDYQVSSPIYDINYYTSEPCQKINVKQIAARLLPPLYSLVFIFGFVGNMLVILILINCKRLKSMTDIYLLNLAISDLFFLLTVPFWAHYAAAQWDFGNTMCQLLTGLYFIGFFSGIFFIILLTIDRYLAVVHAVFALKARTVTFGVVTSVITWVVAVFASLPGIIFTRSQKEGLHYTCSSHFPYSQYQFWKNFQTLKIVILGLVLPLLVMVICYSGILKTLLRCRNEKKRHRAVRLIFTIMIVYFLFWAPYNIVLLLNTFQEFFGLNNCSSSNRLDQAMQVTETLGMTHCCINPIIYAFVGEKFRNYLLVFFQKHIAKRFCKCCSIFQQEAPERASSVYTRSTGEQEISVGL

“CCR5 chemokine receptor, P51681 1-352 (receptor; other documents disagree on this pair)” gave a stoichiometry N of 2.
